Laboratory results reported in patent US20260224446A1, “BIFUNCTIONAL PEPTIDES USEFUL FOR COLLAGEN INTRAFIBRILLAR MINERALIZATION” (University of Kansas, priority 2023, published 2026).
Several values for one entry are separate records, joined by “and”; a condition that tells them apart may be missing. Equal values may be shown once. No end group written: not given here.

Columns and labels:
[1] = ALP-driven mineralization of adhesive/dentin specimen with HABP1, RAMAN imaging with Divisive Clustering Analysis; type: biochemical, human; conditions: for MNRp 960/1460: RAMAN peak ratio; for FMHW PO4^−3): RAMAN, after ALP-driven mineralization; for GMC 1078/960: carbonate to phosphate peak ratio; for Ca-P/collagen 960/1667: phosphate to amide I peak ratio
Method: (§1) ALP-driven mineralization was executed following the protocol discussed in Gungormus et al. (2008). The mineralization buffer prepared was composed of 24.4 Ca^2+ mM and 14.4 mM B-glycerophosphate made in 25 mM Tris-HCl buffer at pH 7.4, and 200 μL/well was added to a 24-well plate. Collagen-peptide samples were placed gently within the well to lay flat at the bottom. The mineralization reaction was initiated by adding FastAP (thermosensitive alkaline phosphatase), 1.4×10^−6 g/mL, and left to incubate at 37° C. for 20 min. The samples were then removed from the wells, gently rinsed in sterile-filtered water, and left to air dry overnight. Throughout this process the samples were handled in a horizontally flat manner to prevent disturbing the peptide-functionalized collagen layer on the surface of the substrate.
Demineralized dentin samples, adhesive/dentin samples (pre/post mineralization), and SC collagen on glass were imaged using a LabRAM ARAMIS Raman microscope (HORIBA Jobin Yvon, Edison, NJ, USA), equipped with a HeNe laser (2=[…], laser power=17 mW). Light micrograph images were taken using a 50× long working distance objective Olympus lens. The samples spectra were evaluated over a wavelength range of 300 cm^−1 to 1800 cm^−1 with a 15 s spectra acquisition time of 4 acquisitions per cycle and processed using LabSPEC 6 software (HORIBA Jobin Yvon, Edison, NJ, USA). Divisive Clustering Analysis (DCA) was used to classify and group respective spectra. This multivariate analysis method was integrated into the LabSPEC 6 analysis software as a Multivariate Analysis (MVA) module (powered by Eigenvector Research Inc., HORIBA Jobin Yvon, NJ, USA). A rectangular area of the surface was imaged and submitted to this multivariate analysis where a statistical pattern determined derived independent clusters to present chemically distinct regions. Average spectra are calculated per cluster which were used to provide information on particular peak parameters and component distribution in the resulting spectra. These components were analyzed for relative degree of mineralization via mineral-to-matrix ratio (MMR), inferred from the ratio of peak intensities at 960 cm^−1 (phosphate) and 1460 cm^−1 (CH2 bending), crystallinity via full width at half maximum (FWHM) from the v1 phosphate band (960 cm^−1), and the carbonate content of mineral crystallites via gradient in mineral content (GMC), based on ratio of relative carbonate (10^70 cm^−1) and phosphate (960 cm^−1) peak heights. The calcium-phosphate (Ca/P) to collagen ratio was also assessed to understand the relative thickness of the mineral formed during mineralization. This would help in comparative evaluations between the samples.
Next evaluated was the use of HABP1 to potentially direct mineralization within the adhesive/demineralized dentin hybrid layer. To do this RAMAN Divisive Clustering Analysis (DCA) was used, a hierarchical k-means clustering method which is useful for identifying the internal structure of multi-layer datasets. We mapped the most distinctive mineral composition variations associated with the collagen matrix structural variations according to their RAMAN spectra. […] The DCA method measures similarity in three parameters: ratio of 960/1460 peak (e.g., mineral-to-matrix ratio), ratio of 1078/960 (gradient mineral carbonation, GMC: carbonate to phosphate) peak, and ratio of the 960/1667 peaks (phosphate to collagen with retained amide I structure, Ca/P collagen). The spectral feature at 1460 cm^−1 is assigned to the CH2 wag for collagen, and 1667 cm^−1 is the amide I peak for the collagen used. The 960 cm^−1 peak is the v1 phosphate stretching vibration associated with the mineral and 10^78 cm^−1 is the band for v1 carbonate. The method clusters the following groups: collagen only, mineral group I, and mineral group II. […]

Type 1 rat tail collagen [2] = target: T1, Type 1 rat tail collagen (Rattus norvegicus, UniProt P02454+P02466); assay: Collagen fibril self-assembly with incorporated peptide, AFM topography fibril widths; conditions: peptide co-assembled with collagen (50 nanomoles in 1 mL of 3 mg/mL), drop-cast on mica
T1 construct: Collagen Type 1 solution from rat tail (3 mg/mL, C3867, 95%) was purchased from Sigma-Aldrich; purchased Sigma-Aldrich C3867; host or cells: rat tail (tissue-derived)
T1 sequence (P02466 86-1125 limits assumed): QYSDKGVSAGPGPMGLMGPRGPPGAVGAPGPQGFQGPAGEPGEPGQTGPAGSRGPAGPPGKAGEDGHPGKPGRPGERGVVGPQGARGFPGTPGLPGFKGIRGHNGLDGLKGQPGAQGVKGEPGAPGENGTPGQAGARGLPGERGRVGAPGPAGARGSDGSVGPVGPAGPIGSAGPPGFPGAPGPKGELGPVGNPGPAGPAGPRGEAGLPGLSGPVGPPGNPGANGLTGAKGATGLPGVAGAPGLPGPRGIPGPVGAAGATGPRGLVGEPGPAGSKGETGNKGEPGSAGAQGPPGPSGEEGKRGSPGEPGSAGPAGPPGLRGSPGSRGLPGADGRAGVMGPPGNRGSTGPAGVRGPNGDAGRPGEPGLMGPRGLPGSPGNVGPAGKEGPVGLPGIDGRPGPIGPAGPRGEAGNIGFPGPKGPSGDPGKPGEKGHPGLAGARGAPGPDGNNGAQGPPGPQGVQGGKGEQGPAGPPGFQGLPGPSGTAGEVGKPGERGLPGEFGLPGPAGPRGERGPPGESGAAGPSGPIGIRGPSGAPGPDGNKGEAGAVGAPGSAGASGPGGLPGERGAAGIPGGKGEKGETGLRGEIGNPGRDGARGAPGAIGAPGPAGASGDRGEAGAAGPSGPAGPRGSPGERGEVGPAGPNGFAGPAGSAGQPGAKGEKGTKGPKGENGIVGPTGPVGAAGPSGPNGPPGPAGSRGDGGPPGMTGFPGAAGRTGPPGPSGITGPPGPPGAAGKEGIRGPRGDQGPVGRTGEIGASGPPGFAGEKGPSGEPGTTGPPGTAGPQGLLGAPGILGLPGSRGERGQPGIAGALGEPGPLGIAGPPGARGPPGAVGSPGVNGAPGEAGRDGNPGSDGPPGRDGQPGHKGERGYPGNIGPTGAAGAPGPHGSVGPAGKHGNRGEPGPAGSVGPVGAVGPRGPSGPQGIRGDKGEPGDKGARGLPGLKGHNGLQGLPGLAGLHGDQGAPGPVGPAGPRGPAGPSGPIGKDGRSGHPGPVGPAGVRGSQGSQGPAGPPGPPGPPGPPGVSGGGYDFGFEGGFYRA
T1 sequence (P02454 152-1207 limits assumed): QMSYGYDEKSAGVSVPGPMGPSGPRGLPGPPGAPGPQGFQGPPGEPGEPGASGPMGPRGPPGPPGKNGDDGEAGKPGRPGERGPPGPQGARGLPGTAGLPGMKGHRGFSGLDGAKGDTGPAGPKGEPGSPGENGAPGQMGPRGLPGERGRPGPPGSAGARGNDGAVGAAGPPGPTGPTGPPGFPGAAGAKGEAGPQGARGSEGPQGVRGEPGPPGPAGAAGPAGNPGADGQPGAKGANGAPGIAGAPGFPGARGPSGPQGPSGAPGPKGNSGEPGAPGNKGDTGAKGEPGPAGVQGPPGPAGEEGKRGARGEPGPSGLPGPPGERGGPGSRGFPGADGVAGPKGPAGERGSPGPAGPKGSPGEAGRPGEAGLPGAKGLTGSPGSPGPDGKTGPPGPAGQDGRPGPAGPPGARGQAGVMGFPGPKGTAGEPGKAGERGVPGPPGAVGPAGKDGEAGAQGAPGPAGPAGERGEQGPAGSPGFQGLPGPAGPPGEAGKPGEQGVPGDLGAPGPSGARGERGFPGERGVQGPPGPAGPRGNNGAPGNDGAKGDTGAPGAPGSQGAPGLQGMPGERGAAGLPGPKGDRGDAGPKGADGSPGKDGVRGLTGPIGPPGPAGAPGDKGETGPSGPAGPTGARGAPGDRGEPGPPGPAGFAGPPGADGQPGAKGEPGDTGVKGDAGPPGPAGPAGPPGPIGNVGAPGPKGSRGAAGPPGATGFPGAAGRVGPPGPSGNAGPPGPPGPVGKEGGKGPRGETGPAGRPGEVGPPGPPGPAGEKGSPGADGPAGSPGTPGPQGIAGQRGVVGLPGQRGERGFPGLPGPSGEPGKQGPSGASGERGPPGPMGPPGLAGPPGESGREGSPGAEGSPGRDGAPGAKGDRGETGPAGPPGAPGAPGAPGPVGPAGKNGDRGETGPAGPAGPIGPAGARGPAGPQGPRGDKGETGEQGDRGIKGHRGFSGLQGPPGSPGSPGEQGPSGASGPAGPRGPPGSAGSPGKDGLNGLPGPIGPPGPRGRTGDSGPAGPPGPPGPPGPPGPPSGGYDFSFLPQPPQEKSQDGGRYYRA
Method: (§2) Grade V1 round mica, 0.21 mm thick and 12 mm in diameter, was used as the substrate surface and mounted onto a 12 mm atomic force microscopy specimen disc using STKYDOT adhesive. In 1 mL of 3 mg/mL Type 1 rat tail collagen suspension, 50 nanomoles of peptide were added. The ratio of mass collagen to mass peptide ranged from 100 wt collagen: 1 wt peptide for single domains to 100 wt collagen: 3 wt peptide for the chimeric peptide. Once peptide was dissolved and gently mixed in the collagen suspension, 150 μL was drop-cast onto the substrate surface and left to self-assemble at 4° C. for 16 h.
(§3) A Bruker Multimode 8 HR scanning probe microscope (Bruker Nano Inc., Camarillo, CA, USA) was operated in peak force tapping mode with the capability of Quantitative Nanomechanics (PeakForce-QNM) in air mode conditions (24±2° C., 40%±5% RH). This advanced testing mode was used to examine the topographical and nanomechanical property changes of the collagen-peptide samples both before and after mineralization. Tapping mode etched silicon probes, type RTESPA 525-30 (Bruker Nano Inc., Camarillo, CA, USA) with a resonant frequency of about 518 kHz, were used to acquire images (1 μm×3 μm and 5 μm×5 μm) at scan rate of 0.5 Hz with 512 pixel/line resolution. The images of the samples were recorded using NanoScope 8.15 software and analyzed using NanoScope Analysis 2.0 software (Bruker Nano Inc., Camarillo, CA, USA).
Building upon the conformational flexibility of the peptide, the CBP-HABP1 peptide was then studied for the assembly properties on the collagen fibrils on mica substrate using AFM topography image analysis. The images were acquired in tapping mode. Non-fibril features, indicated as intensity saturated regions on the surface, are acetic acid salt crystals from the evaporation of the solution in which the collagen was suspended. These features were excluded from image to prevent signal shadowing of the surface fibril assembly. […] Collagen+ (CBP-HABP1) fibrils were measured to be smaller than collagen-alone fibrils, resulting in a statistically significant difference. […]

Type 1 rat tail collagen [3] = target: T1, Type 1 rat tail collagen; assay: SEM/EDS of Ca-P deposits on peptide-incorporated collagen after ALP-driven mineralization; type: biochemical; conditions: for average Ca—P ratio: EDS, initial mineral on peptide-incorporated collagen after 20 min ALP-driven mineralization; for mineral formation morphology on SEM images: peptide-incorporated collagen after ALP-driven mineralization
Method: as §2, §1
In order to examine initial intrafibrillar mineral formation and morphology and determine Ca/P ratios precipitated on the peptide-functionalized collagen surface, a Cold Field Emission Scanning […] Microscope (SEM, S-4700 model, Hitachi High-Tech America, Schaumburg, IL, USA) equipped with a silicon drift energy-dispersive detector (EDS, X-max, Oxford Instruments, Concord, MA, USA) was used via the Microscopy and Analytical Imaging Research Resource Core Laboratory (RRID:SCR_021801). Collagen-peptide samples were sputter-coated with 3 nm gold using a Quorum sputter coating system (Q150, Quorum, Laughton, East Sussex, UK). SEM imaging was completed at an acceleration voltage of 10 kV at ultra-high resolution operating mode and EDS measurements were made at 10 kV under normal operating mode to preserve the integrity of the collagen-peptide layer and prevent burning during signal capture. EDS analysis was performed through AZtec software (X-MaxN, Oxford Instruments, Concord, MA, USA).
The composition and morphology of the Ca—P deposits formed on collagen samples were examined using scanning electron microscopy (SEM) with energy dispersive X-ray analysis (EDS). […] The EDS results validated the finding of Ca—P mineral isomorphs on the peptide-incorporated collagen platforms. The calcium/phosphate ratios were calculated to examine compositional differences. […] Whereas collagen+ (CBP) and collagen+ (CBP-HABP1) had comparatively lower average Ca—P ratios at 1.30 and 1.25, respectively. These values are similar to the molar ratio of octacalcium phosphate, which is around 1.33, and amorphous calcium phosphate (ACP), which is roughly 1.50 [54-57].

Type 1 rat tail collagen [4] = target: T1, Type 1 rat tail collagen; assay: PeakForce-QNM AFM modulus mapping of peptide-functionalized collagen pre/post ALP-driven mineralization; conditions: peptide incorporated into collagen
Method: as §2, §1, §3
Building on the observed effects of the chimeric peptide on the collagen, next examined was if there was a change on the mechanical properties of the collagen due to the peptide presence. Quantitative modulus mapping was executed via PeakForce-QNM AFM to observe the changes in the elastic modulus distribution on the surfaces. The elastic modulus was previously established to be derived by using the Derjaguin-Muller-Toropov (DMT) model, and is thus reported as the DMT modulus. […]

Type 1 rat tail collagen [5] = target: T1, Type 1 rat tail collagen; assay: MicroXCT imaging of mineral formed within peptide-incorporated collagen after ALP-driven mineralization; type: biochemical; conditions: MicroXCT shaded surface display, 20-min ALP-driven mineralization
Method: as §2
ALP-driven mineralization was executed following the protocol discussed in Gungormus et al. (2008). The mineralization buffer prepared was composed of 24.4 Ca^2+ mM and 14.4 mM B-glycerophosphate made in 25 mM Tris-HCl buffer at pH 7.4, and 200 μL/well was added to a 24-well plate. […]
The microscale structure of the mineral formed within the peptide-incorporated collagen platform as a physical indicator of intrafibrillar mineralization, was observed using 3D X-ray microcomputed tomography (MicroXCT-400, Xradia Inc., Pleasanton, CA, USA). […] The 3D images were reconstructed using the XM Reconstructor 8.0 software and were analyzed from an orthogonal view using a TXM 3D Viewer under the […] surface display (SSD) mode (Xradia Inc., Pleasanton, CA, USA). […]

[6] = target: Collagen Type 1 solution from rat tail (3 mg/mL, C3867, Sigma-Aldrich) (rat, UniProt P02454 152-1207; P02466 86-1125); assay: cell-based or functional assay
Collagen Type 1 solution from rat tail (3 mg/mL, C3867, Sigma-Aldrich), sequence (P02454 152-1207 limits assumed, chain 1 of 2): as the sequence (P02454 152-1207 limits assumed) above
Collagen Type 1 solution from rat tail (3 mg/mL, C3867, Sigma-Aldrich), sequence (P02466 86-1125 limits assumed, chain 2 of 2): as the sequence (P02466 86-1125 limits assumed) above

[7] = after 20 min ALP-driven mineralization

| Molecule | Mean fibril width (Type 1 rat tail collagen [2]) | average Ca—P ratio (Type 1 rat tail collagen [3]) | mineral formation morphology on SEM images (Type 1 rat tail collagen [3]) | DMT (elastic) modulus (Type 1 rat tail collagen [4]; [7]) [GPa] | DMT (elastic) modulus (Type 1 rat tail collagen [4]; pre-mineralization) [GPa] | fibril width, Coefficient of variation, AFM topographical imaging [6] | fibril width, Standard Deviation, AFM topographical imaging [6] [nm] | further results |
| --- | --- | --- | --- | --- | --- | --- | --- | --- |
| MLPHHGA [HABP1] | 129.9 nm and 129.90 nm | 1.41 | more extensively branched columnar mineral growth as well as plate-like mineral growth | – | – | – | – | MNRp 960/1460 ([1]; DCA class HABP1 Mineral II): 3.59; FMHW PO4^−3) ([1]; DCA class HABP1 Mineral II): 35.6; GMC 1078/960 ([1]; DCA class HABP1 Mineral II): 0.22; Ca-P/collagen 960/1667 ([1]; DCA class HABP1 Mineral II): 13.2; MNRp 960/1460 ([1]; DCA class HABP1 mineral I): 2.88; FMHW PO4^−3) ([1]; DCA class HABP1 mineral I): 39.6; GMC 1078/960 ([1]; DCA class HABP1 mineral I): 0.31; Ca-P/collagen 960/1667 ([1]; DCA class HABP1 mineral I): 23.9; mineralization shown with a RAMAN peak consistent with CaPO4 formation (960 cm^−1) ([1]; adhesive/dentin specimen, compared with mineralization procedure without peptide): mediates mineralization |
| TKKLTLRTAPAMLPHHGA [CBP-HABP1] | 82.37 nm | 1.25 | more extensively branched columnar mineral growth as well as plate-like mineral growth | 5.83 | 5.25 | – | – | void areas in collagen interior (Type 1 rat tail collagen [5]): almost no void areas; density of mineralized collagen layer (Type 1 rat tail collagen [5]; versus collagen control): denser formation compared to ALP-based mineralized collagen samples |
| TKKLTLRT [CBP] | 121.4 nm and 121.40 nm | 1.30 | branched columnar mineral growth | 6.52 | 5.16 | – | – | – |
| TKKLTLRTAPAMLPHHGA [bifunctional peptide TKKLTLRT-APA-MLPHHGA (CBP-HABP1)] | – | – | – | – | – | 32.1 | 26.5 | – |
| TKKLTLRT-OH [collagenase-collagen-binding peptide (CBP), TKKLTLRT] | – | – | – | – | – | 17 | 20.7 | – |
| MLPHHGA-OH [hydroxyapatite-binding peptide (HABP1), MLPHHGA] | – | – | – | – | – | 67.5 | 87.6 | – |
